Assay: label from the status in PepcDB records

| Sequence | protein production |
| --- | --- |
| SLAGETINFCKGWKFHLGDAGKGASSSSYNDSQWRILNIPHDWSIEGTYKQFENGTDWQSGFLPAGISWYRKTFTIPSKWKNKKVQILFEGVYLNSEVWINGHWLGKRPNGYISFVYDLTPYLQEGKNQIAVKVDHSKALTGRWYTGSGIYRPVYLLVSNPTHIPYSGIHFRSKLQNKQSATYTLSIEIETQEKKPIKVKTYLQAPNGSIADTSEKIFVSSADSLCFLSGSIRKPLLWSPDSPNVYTLICQLTRDNKILDECRLPVGFRQLEFNPVSGFLLNGKSLKIKGVCDHHTVGAVGAAVPDDLLHYRLKLLKDMGCNAIRTSHNPFSPAFYNLCDTMGIMVLNEGLDGWNQPKAADDYGNYFDEWWQKDMTDFIKRDRNHPSIIMWSIGNEVTGATPEIQHNLVSLFHQLDPDRPVTQGGTDPTRGMKTDYQKKFNYLDIIGFNGNGEEIGELEHFHKNYPTLCAIATEVPHTYQTRGVYRSQTQWRRRDFPAPWEKGNINWEQFKHRVFPIPDLTEKECFPEESDYPYYQSSYDNASVRISARKSWQRTCSFPWLMGEFRWGSFDYLGEAEWPQRCGNFGIIDIAAIPKDAYFLYQSLWTDKPMVHLLPHWTHPGKEGKTIPVVIYTNCDAVELFINNVSLGSKPYTGEQLIWLVPYSPGKIEARGIKKGKIVATDCYQSAEAPHSVALASNKYSVKAGSDEVIRIEIDITDKNGIPCPYASNELSFHVSGPLRLLGVDNGNPTDMFPYQQPHCRCFRGKCVVLLQSDEEKGKGTLTVQGTKLVEKKLIIEVIEG | not failed |
| MPMHFLLFAVVCSVLVSVLLKLAPRHRIDVFQAITWNYATAALLAWLILHPALDTLRSTTAPWVALLLLAVALPSIFLVLARSVAVAGIVRTDVAQRLSLVLSLAAAFTVFGEPVNGWKLAGLALGMVAIACIVRRPRQHVATDPLPSTTGLPWLVGVWMGFALIDLLLKHIAQAGTPSLTSLTLCFALAFLLMLGVQSVRWARGARPSTRSMLAGVLLGALNFGNILCYVRAHQVLPHSPATVFASMNLGVVVLGALVGKLGFAERLGLRGWLGLALAAPAIAAIAWGIRLG | failed |
| MMTQQELEKYLWGAATTLRGTIDAGDYKQYIFPLMFFKRICDVYDEEFENALAESDGDLEYAAFAENHHFQVPKGAHWNDVRETTTNIGLALQNAMRAIEKANPDTLEGIFGDASWTNKERLSDAMLTNLIEHYSEQTLNLKNVPDDKLGNAYEYLIKEFADDSGHTAAEFYTNRTVVKLMTMIMAPQPGESVYDPTCGSGGLLLNCALHLKDEGKEYRTLKLYGQEINLLTSAIARMNMFMHGIEEFDIVRGNTLSNPGLLENDELKKFNVILANPPYSIKSWDRKAFESDPYGRNVWGTPPQGCADYAFQQHIQKSLDLGNGRSISLWPHGILFRDAETAMRRKMIEQDQVECVIGLGPNLFYNSPMEACLLITKTNKIESKKDKILFINAVKEVRQDKNIGYLDQVHIDKIFNAYNKFENEDSFAVLVDKQEVLDKKANMAINLYIRPDSLVSSEEACFATAYQEWQQSSGDLKQSMEKLFKELV | not failed |
| MKDTFRLENQTIYFGTERAISASPQTIWRYLTETDKLKQWFPELEIGELGVNGFWRFILPDFEETMPFTDYAEEKYLGVTWDTGIIYFDLKEQAPHQTLLVFSESLPENFTTPRHKDIAGWSIVLNRLKQVVETPDAAPEKIDFPQIENHYLEKLTNLEN | not failed |
| MGHHHHHHSHMLVDNLYRVVSNQKDAAVIRVHLEVNASHEIFKGHFPEVPVLPGVCMVQCIKELIEESLLVKTQIDKGDMIKFLSMLNPVESNSIQAEISIKEKTETRIVFQATLKNEDRFLLKYSGSLVVLN | failed |
| MSQALPVRDQGRDQGIFAGTLPPAPPKFKWTRLDTYTWAIIAVFALVTRFTGLSSATASGTPVFDEKHYVPQAWDMVRSWINPITGGIESNPGYGLVVHPPLAKQLEALGEWVFGYTPLGWRIMVAIFGTLTIFAIMAIARRLSGSTMVTFIAGILALADGVLLVSSRFGMLDIFLVFFITAAAWALIRDHQQMHQRLNDLLLTNGQITKDFGPRFGFRWWRFTTGVFLGLALSVKWSGLYYIAFFGLTSVFLDLWLRKRYGVRRYVTGTLKNDVIPALGSLVIIPALLYIWSWRAWFASETSVYRHAKTDGTITEDSILQLFPESIAGWIHYHISVLEFHGSLTTSSGHSHPWDSKPWAWLVSGRPILYFSSTDISCDVGGTCRRMIYLFGTPAIWWLTVPVILWALWSFFARRSRGYVVPLVAFAAGFLPWLAAYDRQMYFFYATALVPFTIIMLALACGELWGRGKMTPTGLTRGSMAVVTYISLVVMMFLAFSPLFYGFVIPDYVYESLMWFPSWR | not failed |
| MAVTSPNMPASIRWGGIVALIQSTIGFGYAFFLIYREATGETDPSIVYETDNANTWVGYGTAAFFIIVFGTVVAGAINMMKGHRWGRGAVVMLNIILLPAAYYMFIEGRFSWAIVTGISALFVLGALFNKRAVLWANNEI | failed |
| MSVRVYIGNLPRDIEQAELDAVFAEAGEVSAKLVTDRKTGKSRGFAFATVASDELADALIERFNGTEVQGSTLKLEKAQPRERDNEGGNNRRRSGGGGNDNRRSGKSAPRVISSGPEGFQPDPRWAQELEKLKELLAAQTVS | failed |
| MVVHGGAAYIRAMDHLPVDPARYGAFLVAMFVMAITPGPANLFAIATGMEKGKGAALAGVAGMNCATLIWFIGSALGLGALIIAFPQAFHLLALAGAAYLVWLGLKSLWAGWKNAESHAVAAVRGGKSAFVDGFAVQIANPKALLFFTAVLPPFLDVDRPLVPQLLMFACATIGMDLISMSAYGVGGAALSDRMNEPGFRRGFAILVGVLLITAAGLIVSRG | failed |
| MDFSSNVAAQLNAGTILPEGIVIVTLLLVLIVDLIGGRKVALALPYLAIAGLLVSVGLLVTSWSMADPIGFIGAFNGDNLSIIFRAIIALSTVVTILMSVRYVQQTGTSLAEFIAILLTATLGGMFLSAANELVMVFISLEMLSISSYLMTGYMKRDPRSNEAALKYLLIGASSSAIFLYGLSLLYGLSGGETQLVLIAEKLVNADTVGQSLGLAIALVFVIAGIAFKISAVPFHQWTPDVYEGSPTPVVAFLSVGSKAAGFAVAIRLLVTAFGGITDEWHVIFTALAVLSMVLGNVVALAQTSMKRMLAYSSIGQAGFVMIGLVAGSEDGYASMVFYMLIYLFMNLGAFSCIILFTLRTGSDQISDYAGLYHKDPLLTLGLSICLLSLGGIPPLAGFFGKIYIFWAGWQSGLYGLVLLGLVTSVVSIYYYIRVVKMMVVKEPQEMSEVIKNYPAIKWNLPGMRPLQVGIVATLVATSLAGILANPLFNLATDSVVSTKMLQTALQQTGETPAIAISHDLP | failed |
| MSLQFNPIGLFLVALILLGVLGNNNSITISATLLLLMQQTALNKYIPMLEKYGLTIGIIILTIGVLSPIVSGKINLPNLSEILSWKMALAISIGIFVAWLGGRGINLMATQPLIITGLLIGTIIGIAFFGGIPVGPLIAAGIMSLLVGKL | failed |
| MNESPKEGAGGAPDYDVWEAEVKSSRGLPLVWLIPLVALGIGIWLAYRTLSEEGPTITLLFKEAPGLEAGKSKIKFKDVEIGTVESVVLNEDLTGVVVTAKMEKHVATHLGENTAFWVVKPELGLGGVSGLDTLMAGNYIAVEFGGGKVVRRFVGLERPPRIKADTPGRSFFLSADNAGPLKYGTPVYFRDIEVGQVVNVGLAEDNRSVQVEIFIDAPYHRLVHNSTRFWQVSGIDLSLSAQGVNLKVGSIMSLLQGGITFETPTLNDPKVQSSEPNTRFRLHKDFASIAEGTYTLRQPYLLFFDDSVRGLNVGAPVELKGIRVGTVTELKLALDFGAHKIRIPVVIEIDPERLIPYGAEEIIERAKKEYKAAMEAGRRPFMEKLVERGLRARLRTGNLLTGQLYVDLDFYPESPPKSLDYSGQYPELPTLPSVADELQRNVTEIIANLKKIPLDKIGQELLGTVQGSNRLLNSPELKGAVGSLNLALKDLRHLAQTADREMVTLTSAAEKSLSSTARVLEQLEPGSAMAVDISNALEELAASARSIRALTDYLERHPEALLHGKGGSGGKP | failed |
| MTQKEISIIHPRPSSIVAALYTLRDLNVDVAILHGPPGCSFKHARLLEEDGIHVVTTGLDENGFVFGGHDKLVQVINKSIELFNPKILGVVGTCASMIIGEEMHEAVLEANPDIPVIEVEVHAGYHNNTKGVIFALESALDAGIIDHKEFERQEYLEHHHHHH | not failed |
| SESKIACHHTVHGFEQRRGLHSRNEKAMEYVAKGWSAIKEVERVIDYCELNDRRLIPLLRGAKENFELALEADNLNTHARYWLSKLHLKYHVPGACKAVGAALLVEAADMGNADAQYELGCRLRVENDHVQSDQQAFHYIENAVDQLHPGALYLLGIVYLTGDCVKQDVDSAIWCFHRASEKGHAGAAIAYGSLLLRGVQVPESLTKLNVVGVSPPKRARKNLENPEMNPLEMAKEQFQIAARAGCDLGLKWLQRVEQEEKLLMREQDNECAYV | failed |
| SRKVFVGGLPPDIDEDEITASFRRFGPLVVDWPHKAESKSYFPPKGYAFLLFQEESSVQALIDACLEEDGKLYLCVSSPTIKDKPVQIRPWNLSDSDFVMD | not failed |
| MGNNNSTKESTHDNHSDSSTHEEMDHSGSADVPEGLQESKNPKYKVGSQVIINTSHMKGMKGAEATVTGAYDTTAYVVSYTPTNGGQRVDHHKWVIQEEIKDAGDKTLQPGDQVILEASHMKGMKGATAEIDSAEKTTVYMVDYTSTTSGEKVKNHKWVTEDELSAKLEHHHHHH | not failed |
| MKVAGDKIKQARKLKKITQSELANGICTQATISNIENRNLCDSLDIFSSICLRLDLEVEECMMISEEKKIENLLNKVEDLSLRLFHLEAYNLLQEVPEGLILSNNELTTKLLYYKGITCLLGKKDKAEALFYLYRGAEIDRKVNIYNILSLNALGTLYELEKDMRKAQVYYEKSLQELEQFKLECSLERCRIYYNSAKFYSEMKDYQKSVILSEKGIQICRDKHSIYLLDYLLYEKAFNKQMLGEDTADDYRQAYYFTQFFGNTEVLQYIEKDMKAFNISY | failed |
| MLGGIEAGGTKFVCAVGREDGTIIDRIEFPTKMPDETIEKVIQYFSQFSLQAIGIGSFGPVDNDKTSQTYGTITATPKAGWRHYPFLQTVKNEMKIPVGFSTDVNAAALGEFLFGEAKGLDSCLYITIGTGIGAGAIVEGRLLQGLSHPEMGHIYIRRHPDDVYQGKCPYHGDCFEGLASGPAIEARWGKKAADLSDIAQVWELEGYYIAQALAQYILILAPKKIILGGGVMQQKQVFSYIYQYVPKIMNSYLDFSELSDDISDYIVPPRLGSNAGIIGTLVLAHQALQAEAASGEVRS | not failed |
| MSDSAEMQQPELLLKSMNKLNGYHPQLIIPKKTLFKCDLDDKQSRLQVSSMHMENSGFLTEDEKRTIEAQKMKKRRTAGLRVAFIDPESQQYVLELHKWTKSYAFVKGWNKVVDKNDKTFKVGDVFSLWVFRCGGVNPVHDGVNLSGGHADSVVDGLEQGSLCFVLVPAKVSVHDGNLPQDSGHDGHNDNLPQDSVEPSSFFDESYELNHLFFDQEDSQGYLPDEDEDFGFNDDGSIRDSGHYQ | failed |
| MNASLTPDQVSKKLKQFFSDHLPISQFMGLEIESYDGDTLILTAPLEPNINDKQTAFGGSLYNAAVMACWGMVYLKTQEENIACNQVVTEGNMKYIAPVYGRIRAICHAPDEEELANFFDHFERKGKARISLEAAIYNDACVMKIEPETKPSVKFNGQYAILKNQ | not failed |
| MRQRTIVCPLIQNDGCYLLCKMADNRGVFPGQWALSGGGVEPGERIEEALRREIREELGEQLILSDITPWTFRDDIRIKTYADGRQEEIYMIYLIFDCVSANRDICINDEFQDYAWVAPAALALYDLNVATRHTLALKGLL | not failed |
